# From PMC4169731 (Peptides, 2014)
# “And” between values parts separate entries of the source, which are not always exact repeats. Equal entries are not always repeated. Where a SMILES comes first, the peptide text is derived from it. The star is where a group is joined. 124I = [124I]*; 125I = [125I]*
# What was measured:
# Type in all cases: in vivo, mouse
# [1] = Dynamic PET/CT imaging of ^124I-p5, time activity curves, healthy; conditions: WT mice, ^124I-p5 IV
# [2] = test system: amyloid-laden (AA) H2-L^d-HuIL-6 Tg BALB/c mice; test: Dynamic PET/CT imaging of ^124I-p5, time activity curves, amyloid-laden
# [3] = Dynamic PET/CT imaging of ^124I-p5 in mice; conditions: ^124I-p5 IV, dynamic PET
# [4] = test system: AA amyloid deposits; test: Tissue biodistribution of ^124I radioactivity; conditions: 120 min pi of ^124I-p5; n = 3; more in AA mice
# [5] = test system: AA amyloid deposits; test: Longitudinal SPECT/CT imaging of ^125I-p5 in AA mice
# [6] = test system: AA amyloid deposits; conditions: ^125I-p5; 72 h pi; AA mice; microautoradiography
# [7] = dynamic PET 2 h, double exponential fit
# [8] = dynamic PET 2 h, single exponential fit
# [9] = AA mice, ^124I-p5 IV, dynamic PET 2 h, double exponential fit
# [10] = AA mice, ^124I-p5 IV, dynamic PET 2 h, single exponential fit
# [11] = higher in AA mice, biexponential decay, dynamic PET
molecule,measurement,setting,value
"^124I-p5: peptide p5 radiolabeled with ^124I on Tyr using Iodogen, for PET imaging (H-GGGY(124I)SKAQKAQAKQAKQAQKAQKAQAKQAKQ-OH)",Lag time (tlag) before accumulation of radioactivity in stomach,[1]; dynamic PET,~ 8 min
same,Time of peak activity in the kidneys (tmax),[1]; dynamic PET,~ 7 min
same,"T1/2 fast, liver",[1]; [7],0.70 min
same,"T1/2 slow, blood",[1]; [7],37.99 min
same,"T1/2 slow, liver",[1]; [7],20.82 min
same,"Kfast, kidney","[1]; dynamic PET 2 h, single exponential decay after peak",0.06 min⁻¹ and 0.06 ± 0.001 min⁻¹
same,"T1/2 fast, kidney",[1]; [8],10.96 min
same,"T1/2 fast, spleen",[1]; [8],11.19 min
same,"T1/2 fast, thyroid",[1]; [8],20.67 min
same,Lag time (tlag) before accumulation of radioactivity in stomach,"[2]; AA mice, ^124I-p5 IV, dynamic PET",~ 8 min
same,"Kslow, liver","[2]; AA mice, ^124I-p5 IV, dynamic PET 2 h, double exponential association",0.17 ± 0.01 min⁻¹
same,"Kslow, blood (heart ROI)",[2]; [9],0.49 ± 0.04 min⁻¹
same,"T1/2 fast, blood",[2]; [9],0.49 min
same,"T1/2 fast, liver",[2]; [9],0.31 min
same,"Kfast, spleen","[2]; AA mice, ^124I-p5 IV, dynamic PET 2 h, single exponential association",0.04 ± 0.00 min⁻¹
same,"Kfast, kidney",[2]; [10],0.04 min⁻¹ and 0.04 ± 0.003 min⁻¹
same,"T1/2 fast, kidney",[2]; [10],16.62 min
same,"T1/2 fast, spleen",[2]; [10],15.62 min
same,"Blood pool Kfast (α component), AA mice relative to WT mice",[2]; [11],> 2 fold
same,"Blood pool Kslow (β), AA mice relative to WT mice",[2]; [11],> 2 fold
same,Lag time (tlag) of thyroid radioactivity,[3]; WT and AA not distinguished,~ 8 min
same,Radioactivity removed from the blood pool,[3]; by 5 min pi,~ 90%
same,"Radioactivity (%ID/g) in liver, pancreas and spleen, AA mice compared to WT mice",[4],~ 10 fold
C[C@H](NC(=O)[C@H](CCC(N)=O)NC(=O)[C@H](C)NC(=O)[C@H](CCCCN)NC(=O)[C@H](CCC(N)=O)NC(=O)[C@H](C)NC(=O)[C@H](CCCCN)NC(=O)[C@H](CCC(N)=O)NC(=O)[C@H](C)NC(=O)[C@H](CCC(N)=O)NC(=O)[C@H](CCCCN)NC(=O)[C@H](C)NC(=O)[C@H](CCC(N)=O)NC(=O)[C@H](CCCCN)NC(=O)[C@H](C)NC(=O)[C@H](CCC(N)=O)NC(=O)[C@H](C)NC(=O)[C@H](CCCCN)NC(=O)[C@H](CCC(N)=O)NC(=O)[C@H](C)NC(=O)[C@H](CCCCN)NC(=O)[C@H](CO)NC(=O)[C@H](Cc1ccc(O)cc1)NC(=O)CNC(=O)CNC(=O)CN)C(=O)N[C@@H](CCCCN)C(=O)N[C@@H](CCC(N)=O)C(=O)N[C@@H](C)C(=O)N[C@@H](CCCCN)C(=O)N[C@@H](CCC(N)=O)C(=O)O [p5] (H-GGGYSKAQKAQAKQAKQAQKAQKAQAKQAKQ-OH),Time the peptide remains bound to amyloid in vivo,[5]; mice,at least 3 days
same,Time the peptide remains stably bound to amyloid deposits and radioactive,"[5]; mice, pi",at least 72 h
"^125I-p5: peptide p5 radioiodinated with ^125I using chloramine T, for SPECT imaging (H-GGGY(125I)SKAQKAQAKQAKQAQKAQKAQAKQAKQ-OH)",Reactivity with healthy tissues,[6],No significant reactivity
same,"Loss of radioactivity from major amyloid organs (liver, spleen and pancreas)","[5]; AA mice, ^125I-p5, 72 h pi, SPECT",essentially no loss of radioactivity
same,Time of retention in the liver and spleen,"[5]; AA mice, ~5 μg ^125I-p5 (~150 μCi) IV, SPECT/CT at 2, 24, 48, 72 h pi",more than 72 h
